Earlier results in patent US20190350851A1, “DOSE RESPONSE, SURFACE MODIFIED NANOTUBES” (MOLECULAR REBAR DESIGN, LLC, priority 2018, published 2019).

B1: Myoglobin (protein, UniProt P02144 2-154, looked up)
Myoglobin: GLSDGEWQLVLNVWGKVEADIPGHGQEVLIRLFKGHPETLEKFDKFKHLKSEDEMKASEDLKKHGATVLTALGGILKKKGHHEAEIKPLAQSHATKHKIPVKYLEFISECIIQVLQSKHPGDFGADAQGAMNKALELFRKDMASNYKELGFQG

Conditions: in water

Point of comparison: Bovine serum albumin, “Hydrodynamic Radius” value 7.0 nm. Against it:
- NC(=O)CC[C@@H]1NC(=O)[C@H](Cc2ccccc2)NC(=O)[C@H](Cc2ccc(O)cc2)NC(=O)CCSSC[C@@H](C(=O)N2CCC[C@H]2C(=O)N[C@H](CCCN=C(N)N)C(=O)NCC(N)=O)NC(=O)[C@H](CC(N)=O)NC1=O [Desmopressin, reference compound] — lower, 0.88 nm
- O=C(O)c1cccnc1 [Niacin, reference compound] — lower, 0.33 nm
- CN1CCCC1c1cccnc1 (centres unmarked) [Nicotine, reference compound] — lower, 0.38 nm
- Cytochrome C — lower, 2.64 nm
- Insulin — lower, 2.1 nm
- B1 — lower, 3.34 nm

Same assay, conditions: in water; listed as bovine serum albumin

In the case of Bovine serum albumin, the “Hydrodynamic Radius” value is given as 7 nm.
